Laboratory results as given in the supplement of paper PMC10065799, “High-throughput profiling of sequence recognition by tyrosine kinases and SH2 domains using bacterial peptide display” (eLife, 2023).

Key:
[1] = molecular target: c-Src SH2; assay: SH2 binding enrichment of the phosphorylated peptide, bacterial display (enrichment ratio); higher = better substrate or ligand; peptides without Tyr show the background
[2] = molecular target: SHP2-C SH2; assay: as above
[3] = molecular target: Grb2 SH2 (UniProt P62993); assay: as above
Grb2 SH2, sequence (P62993 whole entry, looked up): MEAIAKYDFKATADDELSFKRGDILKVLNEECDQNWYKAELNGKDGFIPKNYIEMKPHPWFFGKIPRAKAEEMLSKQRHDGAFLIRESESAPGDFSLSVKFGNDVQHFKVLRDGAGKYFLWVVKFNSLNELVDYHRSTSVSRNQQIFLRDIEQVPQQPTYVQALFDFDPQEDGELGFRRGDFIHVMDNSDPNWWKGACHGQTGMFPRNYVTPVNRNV

[4] = molecular target: Fes (UniProt P07332); assay: phosphorylation enrichment, bacterial display (enrichment ratio); higher = better substrate or ligand; peptides without Tyr show the background
Fes, sequence (P07332 whole entry, looked up): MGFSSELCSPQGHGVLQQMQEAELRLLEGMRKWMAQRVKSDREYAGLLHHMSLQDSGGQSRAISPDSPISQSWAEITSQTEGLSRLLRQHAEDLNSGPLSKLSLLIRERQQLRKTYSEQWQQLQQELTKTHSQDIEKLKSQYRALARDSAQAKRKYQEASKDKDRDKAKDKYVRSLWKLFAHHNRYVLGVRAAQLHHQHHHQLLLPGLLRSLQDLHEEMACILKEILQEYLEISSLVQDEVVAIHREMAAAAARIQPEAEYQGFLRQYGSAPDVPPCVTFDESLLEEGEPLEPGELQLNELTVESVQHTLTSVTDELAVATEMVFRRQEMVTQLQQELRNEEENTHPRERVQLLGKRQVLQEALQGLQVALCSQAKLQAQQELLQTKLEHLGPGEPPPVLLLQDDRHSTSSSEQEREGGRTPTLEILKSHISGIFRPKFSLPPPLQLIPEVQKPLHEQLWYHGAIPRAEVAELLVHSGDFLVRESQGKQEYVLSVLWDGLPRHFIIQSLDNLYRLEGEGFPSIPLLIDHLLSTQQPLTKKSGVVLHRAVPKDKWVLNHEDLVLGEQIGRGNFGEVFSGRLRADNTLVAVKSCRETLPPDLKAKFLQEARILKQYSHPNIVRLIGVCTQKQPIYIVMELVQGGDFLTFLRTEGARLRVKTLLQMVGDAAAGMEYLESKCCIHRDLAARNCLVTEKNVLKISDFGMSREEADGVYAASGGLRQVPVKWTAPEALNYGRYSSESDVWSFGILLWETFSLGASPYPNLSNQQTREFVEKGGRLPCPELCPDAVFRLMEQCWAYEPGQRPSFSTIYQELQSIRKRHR

[5] = test system: AncSZ; assay: as above
[6] = molecular target: EPHB1 (UniProt P54762); assay: as above
EPHB1, sequence (P54762 whole entry, looked up): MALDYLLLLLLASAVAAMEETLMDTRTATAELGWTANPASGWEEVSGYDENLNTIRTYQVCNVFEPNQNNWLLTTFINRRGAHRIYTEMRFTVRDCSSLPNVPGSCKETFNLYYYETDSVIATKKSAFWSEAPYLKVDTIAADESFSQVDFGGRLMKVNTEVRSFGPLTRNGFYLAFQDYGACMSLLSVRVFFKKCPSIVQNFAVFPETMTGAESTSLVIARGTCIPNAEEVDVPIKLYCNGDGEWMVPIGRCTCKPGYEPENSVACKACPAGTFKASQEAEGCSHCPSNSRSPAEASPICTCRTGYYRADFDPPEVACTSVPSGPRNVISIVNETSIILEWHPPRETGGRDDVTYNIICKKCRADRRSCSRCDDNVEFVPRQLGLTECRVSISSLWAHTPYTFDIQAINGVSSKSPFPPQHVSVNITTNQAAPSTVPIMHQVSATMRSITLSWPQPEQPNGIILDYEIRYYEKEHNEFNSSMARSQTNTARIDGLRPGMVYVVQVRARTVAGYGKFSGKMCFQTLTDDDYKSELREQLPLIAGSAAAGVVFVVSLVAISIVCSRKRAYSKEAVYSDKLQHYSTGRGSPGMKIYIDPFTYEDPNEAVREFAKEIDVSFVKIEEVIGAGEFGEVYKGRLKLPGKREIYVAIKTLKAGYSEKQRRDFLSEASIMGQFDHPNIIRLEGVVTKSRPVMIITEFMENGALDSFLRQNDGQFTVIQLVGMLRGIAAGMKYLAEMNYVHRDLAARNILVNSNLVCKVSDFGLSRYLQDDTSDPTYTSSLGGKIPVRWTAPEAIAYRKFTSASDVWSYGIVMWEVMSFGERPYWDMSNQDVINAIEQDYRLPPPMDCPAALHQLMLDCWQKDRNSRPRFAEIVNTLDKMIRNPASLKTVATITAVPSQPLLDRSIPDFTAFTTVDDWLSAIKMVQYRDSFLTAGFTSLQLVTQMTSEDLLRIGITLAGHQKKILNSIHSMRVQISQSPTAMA

[7] = molecular target: Hck (UniProt P08631); assay: as above
[8] = molecular target: Fyn (UniProt P06241); assay: as above
[9] = molecular target: FGFR3 (UniProt P22607); assay: as above
FGFR3, sequence (P22607 whole entry, looked up): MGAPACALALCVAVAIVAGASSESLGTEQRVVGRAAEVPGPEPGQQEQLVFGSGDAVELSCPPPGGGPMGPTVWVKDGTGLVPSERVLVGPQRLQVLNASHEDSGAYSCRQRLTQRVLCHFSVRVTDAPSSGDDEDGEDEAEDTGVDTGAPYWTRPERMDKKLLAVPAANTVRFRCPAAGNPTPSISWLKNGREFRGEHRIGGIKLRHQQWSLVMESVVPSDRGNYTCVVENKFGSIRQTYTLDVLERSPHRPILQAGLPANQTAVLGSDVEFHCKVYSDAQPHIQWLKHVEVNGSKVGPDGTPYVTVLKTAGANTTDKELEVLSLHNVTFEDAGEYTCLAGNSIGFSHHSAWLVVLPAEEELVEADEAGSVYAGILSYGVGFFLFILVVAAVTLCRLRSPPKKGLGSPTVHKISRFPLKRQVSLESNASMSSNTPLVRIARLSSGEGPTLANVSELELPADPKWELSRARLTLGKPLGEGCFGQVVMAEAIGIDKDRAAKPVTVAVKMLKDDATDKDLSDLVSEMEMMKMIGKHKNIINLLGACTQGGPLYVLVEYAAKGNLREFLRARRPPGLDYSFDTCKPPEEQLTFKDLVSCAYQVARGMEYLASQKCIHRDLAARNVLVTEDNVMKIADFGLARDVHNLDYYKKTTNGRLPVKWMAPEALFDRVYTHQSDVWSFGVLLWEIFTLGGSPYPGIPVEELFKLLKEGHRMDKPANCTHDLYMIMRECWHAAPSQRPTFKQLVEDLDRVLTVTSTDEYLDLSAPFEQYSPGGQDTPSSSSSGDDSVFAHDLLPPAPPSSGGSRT

[10] = test system: Fer (mouse); assay: as above
[11] = molecular target: Jak2 (UniProt O60674); assay: as above
Jak2, sequence (O60674 whole entry, looked up): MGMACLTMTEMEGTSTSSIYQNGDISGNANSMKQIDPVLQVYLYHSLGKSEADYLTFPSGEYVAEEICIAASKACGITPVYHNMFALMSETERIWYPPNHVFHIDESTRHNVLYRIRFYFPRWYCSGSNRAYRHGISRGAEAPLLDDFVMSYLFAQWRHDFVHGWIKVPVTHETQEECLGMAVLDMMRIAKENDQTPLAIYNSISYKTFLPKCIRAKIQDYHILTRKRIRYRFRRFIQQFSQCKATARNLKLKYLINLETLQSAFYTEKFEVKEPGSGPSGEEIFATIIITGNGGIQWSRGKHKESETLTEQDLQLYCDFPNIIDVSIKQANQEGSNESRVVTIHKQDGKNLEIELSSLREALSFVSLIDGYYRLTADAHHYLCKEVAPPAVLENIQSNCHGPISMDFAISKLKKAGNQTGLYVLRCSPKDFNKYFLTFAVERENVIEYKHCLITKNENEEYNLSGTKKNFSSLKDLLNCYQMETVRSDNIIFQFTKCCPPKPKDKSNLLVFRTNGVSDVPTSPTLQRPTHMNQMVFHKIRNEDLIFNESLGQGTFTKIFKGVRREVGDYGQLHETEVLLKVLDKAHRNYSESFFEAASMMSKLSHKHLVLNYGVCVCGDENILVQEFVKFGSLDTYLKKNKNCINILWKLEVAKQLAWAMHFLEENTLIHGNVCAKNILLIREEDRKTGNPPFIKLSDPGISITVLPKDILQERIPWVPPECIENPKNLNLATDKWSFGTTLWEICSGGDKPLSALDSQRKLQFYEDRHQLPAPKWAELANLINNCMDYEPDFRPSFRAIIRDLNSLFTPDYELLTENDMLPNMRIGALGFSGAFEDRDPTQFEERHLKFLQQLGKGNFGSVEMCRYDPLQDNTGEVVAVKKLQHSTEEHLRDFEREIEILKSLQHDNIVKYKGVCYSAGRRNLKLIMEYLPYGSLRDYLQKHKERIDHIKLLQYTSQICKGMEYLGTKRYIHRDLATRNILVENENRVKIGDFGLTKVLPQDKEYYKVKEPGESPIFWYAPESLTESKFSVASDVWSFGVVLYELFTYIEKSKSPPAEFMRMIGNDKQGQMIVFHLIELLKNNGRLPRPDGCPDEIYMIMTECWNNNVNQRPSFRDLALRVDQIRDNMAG

[12] = molecular target: MERTK (UniProt Q12866); assay: as above
[13] = test system: c-Src; assay: as above
[14] = molecular target: FGFR1 (UniProt P11362); assay: as above
[15] = molecular target: EPHB2 (UniProt P29323); assay: as above
EPHB2, sequence (P29323 whole entry, looked up): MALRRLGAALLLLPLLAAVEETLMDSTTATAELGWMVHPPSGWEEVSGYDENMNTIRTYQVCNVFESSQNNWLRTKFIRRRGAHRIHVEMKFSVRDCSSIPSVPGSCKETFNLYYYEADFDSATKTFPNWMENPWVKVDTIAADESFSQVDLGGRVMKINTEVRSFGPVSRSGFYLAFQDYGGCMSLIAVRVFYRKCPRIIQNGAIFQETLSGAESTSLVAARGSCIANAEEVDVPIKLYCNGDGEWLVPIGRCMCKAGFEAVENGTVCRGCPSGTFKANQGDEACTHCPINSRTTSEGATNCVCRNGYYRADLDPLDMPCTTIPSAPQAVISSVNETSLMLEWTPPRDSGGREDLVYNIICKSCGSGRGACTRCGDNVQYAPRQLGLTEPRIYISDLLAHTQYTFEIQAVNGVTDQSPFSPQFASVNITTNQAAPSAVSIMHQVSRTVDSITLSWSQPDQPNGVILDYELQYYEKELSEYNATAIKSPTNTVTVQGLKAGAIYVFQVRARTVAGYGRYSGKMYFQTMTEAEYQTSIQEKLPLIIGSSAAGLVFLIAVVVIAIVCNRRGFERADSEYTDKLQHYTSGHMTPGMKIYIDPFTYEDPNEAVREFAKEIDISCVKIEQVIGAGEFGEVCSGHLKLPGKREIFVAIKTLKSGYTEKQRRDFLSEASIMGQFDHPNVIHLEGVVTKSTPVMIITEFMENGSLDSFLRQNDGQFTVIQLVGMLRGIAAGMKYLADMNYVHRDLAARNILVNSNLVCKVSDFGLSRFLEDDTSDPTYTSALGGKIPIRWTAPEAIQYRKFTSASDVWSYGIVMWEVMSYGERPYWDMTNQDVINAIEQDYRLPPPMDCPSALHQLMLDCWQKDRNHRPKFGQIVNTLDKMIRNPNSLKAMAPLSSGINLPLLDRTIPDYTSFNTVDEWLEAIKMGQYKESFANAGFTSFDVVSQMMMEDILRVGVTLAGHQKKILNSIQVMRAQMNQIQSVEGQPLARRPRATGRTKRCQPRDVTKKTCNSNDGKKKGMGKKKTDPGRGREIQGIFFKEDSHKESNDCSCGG

[16] = test system: c-Abl (mouse); assay: as above
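For SH2 binding enrichment of the phosphorylated peptide, bacterial display in this document: peptide library displayed on the E. coli surface as eCPX fusions, selected cells deep-sequenced, score is each peptide's frequency after selection divided by its frequency in the input.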
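For phosphorylation enrichment, bacterial display in this document: 11-residue human phosphosite peptides and single-mutation variants displayed on the E. coli surface, counted by deep sequencing, each peptide's frequency after selection divided by its frequency in the unselected input library; frequency after pTyr selection over input frequency; kinase dosed for 20-30% of maximal phosphorylation in three min.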

Sequence: RAMRRYLERGE [ERBB3_Y680]
- SH2 binding enrichment [1]: 0.411
- SH2 binding enrichment [2]: 0.554
- SH2 binding enrichment [3]: 0.716
- phosphorylation enrichment [4]: 0.576
- phosphorylation enrichment [5]: 0.722
- phosphorylation enrichment [6]: 0.719
- phosphorylation enrichment [7]: 0.711
- phosphorylation enrichment [8]: 0.608
- phosphorylation enrichment [9]: 0.679
- phosphorylation enrichment [10]: 0.686
- phosphorylation enrichment [11]: 0.607
- phosphorylation enrichment [12]: 0.61
- phosphorylation enrichment [13]: 0.455
- phosphorylation enrichment [14]: 0.636
- phosphorylation enrichment [15]: 0.563
- phosphorylation enrichment [16]: 0.615

Sequence: RRIHCYRGHLW [VHL_Y112_S111C]
- SH2 binding enrichment [1]: 0.583
- SH2 binding enrichment [2]: 0.568
- SH2 binding enrichment [3]: 0.722
- phosphorylation enrichment [4]: 1.17
- phosphorylation enrichment [5]: 0.626
- phosphorylation enrichment [6]: 0.49
- phosphorylation enrichment [7]: 0.483
- phosphorylation enrichment [8]: 0.465
- phosphorylation enrichment [9]: 0.56
- phosphorylation enrichment [10]: 0.66
- phosphorylation enrichment [11]: 0.702
- phosphorylation enrichment [12]: 0.556
- phosphorylation enrichment [13]: 0.62
- phosphorylation enrichment [14]: 0.475
- phosphorylation enrichment [15]: 0.524
- phosphorylation enrichment [16]: 0.527

Sequence: VKPHRYRPGTV [H3-5_Y41]
- SH2 binding enrichment [1]: 0.486
- SH2 binding enrichment [2]: 0.671
- SH2 binding enrichment [3]: 0.781
- phosphorylation enrichment [4]: 0.573
- phosphorylation enrichment [5]: 0.513
- phosphorylation enrichment [6]: 0.378
- phosphorylation enrichment [7]: 0.328
- phosphorylation enrichment [8]: 0.386
- phosphorylation enrichment [9]: 0.346
- phosphorylation enrichment [10]: 0.362
- phosphorylation enrichment [11]: 0.494
- phosphorylation enrichment [12]: 0.456
- phosphorylation enrichment [13]: 0.434
- phosphorylation enrichment [14]: 0.407
- phosphorylation enrichment [15]: 0.337
- phosphorylation enrichment [16]: 0.613

Sequence: KDKLPYPYDDP [GPX2_Y125]
- SH2 binding enrichment [1]: 1.67
- SH2 binding enrichment [2]: 0.757
- SH2 binding enrichment [3]: 0.889
- phosphorylation enrichment [4]: 1.17
- phosphorylation enrichment [5]: 1
- phosphorylation enrichment [6]: 0.599
- phosphorylation enrichment [7]: 0.435
- phosphorylation enrichment [8]: 0.414
- phosphorylation enrichment [9]: 0.655
- phosphorylation enrichment [10]: 0.455
- phosphorylation enrichment [11]: 1.04
- phosphorylation enrichment [12]: 0.42
- phosphorylation enrichment [13]: 0.486
- phosphorylation enrichment [14]: 0.562
- phosphorylation enrichment [15]: 0.487
- phosphorylation enrichment [16]: 0.584

Sequence: SGPRHYTIAAL [TTR_Y125_R124H]
- SH2 binding enrichment [1]: 1.35
- SH2 binding enrichment [2]: 1.19
- SH2 binding enrichment [3]: 1.06
- phosphorylation enrichment [4]: 0.66
- phosphorylation enrichment [5]: 0.59
- phosphorylation enrichment [6]: 0.516
- phosphorylation enrichment [7]: 0.468
- phosphorylation enrichment [8]: 0.455
- phosphorylation enrichment [9]: 0.509
- phosphorylation enrichment [10]: 0.438
- phosphorylation enrichment [11]: 0.525
- phosphorylation enrichment [12]: 0.464
- phosphorylation enrichment [13]: 0.455
- phosphorylation enrichment [14]: 0.404
- phosphorylation enrichment [15]: 0.51
- phosphorylation enrichment [16]: 0.524

Sequence: TNFPLYLRSLE [MTM1_Y71_R69P_YF]
- SH2 binding enrichment [1]: 0.675
- SH2 binding enrichment [2]: 0.976
- SH2 binding enrichment [3]: 0.883
- phosphorylation enrichment [4]: 0.761
- phosphorylation enrichment [5]: 0.716
- phosphorylation enrichment [6]: 0.685
- phosphorylation enrichment [7]: 0.505
- phosphorylation enrichment [8]: 0.413
- phosphorylation enrichment [9]: 0.544
- phosphorylation enrichment [10]: 0.401
- phosphorylation enrichment [11]: 1.13
- phosphorylation enrichment [12]: 0.378
- phosphorylation enrichment [13]: 0.492
- phosphorylation enrichment [14]: 0.449
- phosphorylation enrichment [15]: 0.51
- phosphorylation enrichment [16]: 0.493

Sequence: IIEDPYFGNDF [ACP1_Y132_S137F_YF]
- SH2 binding enrichment [1]: 0.519
- SH2 binding enrichment [2]: 0.662
- SH2 binding enrichment [3]: 0.769
- phosphorylation enrichment [4]: 1.43
- phosphorylation enrichment [5]: 1.36
- phosphorylation enrichment [6]: 0.664
- phosphorylation enrichment [7]: 0.823
- phosphorylation enrichment [8]: 1.11
- phosphorylation enrichment [9]: 0.908
- phosphorylation enrichment [10]: 0.757
- phosphorylation enrichment [11]: 1.3
- phosphorylation enrichment [12]: 0.487
- phosphorylation enrichment [13]: 2.98
- phosphorylation enrichment [14]: 0.791
- phosphorylation enrichment [15]: 0.695
- phosphorylation enrichment [16]: 0.871

Sequence: GRLVEYDIDEV [SMS_Y134]
- SH2 binding enrichment [1]: 0.845
- SH2 binding enrichment [2]: 0.613
- SH2 binding enrichment [3]: 0.812
- phosphorylation enrichment [4]: 1.48
- phosphorylation enrichment [5]: 1.28
- phosphorylation enrichment [6]: 0.709
- phosphorylation enrichment [7]: 0.549
- phosphorylation enrichment [8]: 0.508
- phosphorylation enrichment [9]: 0.771
- phosphorylation enrichment [10]: 0.658
- phosphorylation enrichment [11]: 1.45
- phosphorylation enrichment [12]: 0.489
- phosphorylation enrichment [13]: 0.563
- phosphorylation enrichment [14]: 0.494
- phosphorylation enrichment [15]: 1.05
- phosphorylation enrichment [16]: 0.902

Sequence: PLFRKYWPNHI [GREB1L_Y1560_YF]
- SH2 binding enrichment [1]: 0.461
- SH2 binding enrichment [2]: 0.973
- SH2 binding enrichment [3]: 0.855
- phosphorylation enrichment [4]: 0.994
- phosphorylation enrichment [5]: 1.17
- phosphorylation enrichment [6]: 0.589
- phosphorylation enrichment [7]: 0.727
- phosphorylation enrichment [8]: 0.698
- phosphorylation enrichment [9]: 0.565
- phosphorylation enrichment [10]: 0.482
- phosphorylation enrichment [11]: 0.695
- phosphorylation enrichment [12]: 0.633
- phosphorylation enrichment [13]: 0.491
- phosphorylation enrichment [14]: 0.505
- phosphorylation enrichment [15]: 0.498
- phosphorylation enrichment [16]: 0.557

Sequence: VEEDTYTMPST [PTK2_Y407_D402V]
- SH2 binding enrichment [1]: 0.424
- SH2 binding enrichment [2]: 0.648
- SH2 binding enrichment [3]: 0.64
- phosphorylation enrichment [4]: 1.31
- phosphorylation enrichment [5]: 4.74
- phosphorylation enrichment [6]: 0.879
- phosphorylation enrichment [7]: 3.5
- phosphorylation enrichment [8]: 6.55
- phosphorylation enrichment [9]: 0.984
- phosphorylation enrichment [10]: 0.741
- phosphorylation enrichment [11]: 1.12
- phosphorylation enrichment [12]: 1.6
- phosphorylation enrichment [13]: 4.81
- phosphorylation enrichment [14]: 0.697
- phosphorylation enrichment [15]: 0.675
- phosphorylation enrichment [16]: 1.18

Sequence: YSQNIYIQNRN [PKP2_Y631]
- SH2 binding enrichment [1]: 0.691
- SH2 binding enrichment [2]: 0.906
- SH2 binding enrichment [3]: 0.896
- phosphorylation enrichment [4]: 0.706
- phosphorylation enrichment [5]: 0.804
- phosphorylation enrichment [6]: 0.424
- phosphorylation enrichment [7]: 0.633
- phosphorylation enrichment [8]: 0.443
- phosphorylation enrichment [9]: 0.483
- phosphorylation enrichment [10]: 0.489
- phosphorylation enrichment [11]: 0.59
- phosphorylation enrichment [12]: 1.43
- phosphorylation enrichment [13]: 0.528
- phosphorylation enrichment [14]: 0.482
- phosphorylation enrichment [15]: 0.569
- phosphorylation enrichment [16]: 0.6

Sequence: VTAALYGRLYE [BTD_Y536]
- SH2 binding enrichment [1]: 1.12
- SH2 binding enrichment [2]: 0.838
- SH2 binding enrichment [3]: 0.899
- phosphorylation enrichment [4]: 1.04
- phosphorylation enrichment [5]: 0.883
- phosphorylation enrichment [6]: 1.06
- phosphorylation enrichment [7]: 5.15
- phosphorylation enrichment [8]: 5.26
- phosphorylation enrichment [9]: 0.724
- phosphorylation enrichment [10]: 1.31
- phosphorylation enrichment [11]: 0.904
- phosphorylation enrichment [12]: 2.68
- phosphorylation enrichment [13]: 4.81
- phosphorylation enrichment [14]: 0.498
- phosphorylation enrichment [15]: 1.43
- phosphorylation enrichment [16]: 0.888

Sequence: CRIELYRIVES [IGFBP1_Y181_V183I]
- SH2 binding enrichment [1]: 0.556
- SH2 binding enrichment [2]: 0.682
- SH2 binding enrichment [3]: 0.888
- phosphorylation enrichment [4]: 1.49
- phosphorylation enrichment [5]: 1.21
- phosphorylation enrichment [6]: 1.82
- phosphorylation enrichment [7]: 0.548
- phosphorylation enrichment [8]: 0.455
- phosphorylation enrichment [9]: 0.837
- phosphorylation enrichment [10]: 0.579
- phosphorylation enrichment [11]: 1.28
- phosphorylation enrichment [12]: 0.451
- phosphorylation enrichment [13]: 0.53
- phosphorylation enrichment [14]: 0.422
- phosphorylation enrichment [15]: 0.616
- phosphorylation enrichment [16]: 0.991

Sequence: FDAHIYEGCVI [PRKCD_Y64_R67C]
- SH2 binding enrichment [1]: 0.5
- SH2 binding enrichment [2]: 0.758
- SH2 binding enrichment [3]: 0.713
- phosphorylation enrichment [4]: 1.44
- phosphorylation enrichment [5]: 1.39
- phosphorylation enrichment [6]: 0.656
- phosphorylation enrichment [7]: 2.53
- phosphorylation enrichment [8]: 2.48
- phosphorylation enrichment [9]: 0.831
- phosphorylation enrichment [10]: 10.5
- phosphorylation enrichment [11]: 1.05
- phosphorylation enrichment [12]: 0.635
- phosphorylation enrichment [13]: 3.34
- phosphorylation enrichment [14]: 0.563
- phosphorylation enrichment [15]: 0.639
- phosphorylation enrichment [16]: 0.938

Sequence: YFRDGHMPRQY [GSS_Y270_Y270H]
- SH2 binding enrichment [1]: 0.51
- SH2 binding enrichment [2]: 0.821
- SH2 binding enrichment [3]: 1.04
- phosphorylation enrichment [4]: 0.584
- phosphorylation enrichment [5]: 0.454
- phosphorylation enrichment [6]: 0.458
- phosphorylation enrichment [7]: 0.45
- phosphorylation enrichment [8]: 0.443
- phosphorylation enrichment [9]: 0.583
- phosphorylation enrichment [10]: 0.436
- phosphorylation enrichment [11]: 1.03
- phosphorylation enrichment [12]: 0.445
- phosphorylation enrichment [13]: 0.401
- phosphorylation enrichment [14]: 0.531
- phosphorylation enrichment [15]: 0.462
- phosphorylation enrichment [16]: 0.541

Sequence: FTFDPYSEEDP [IL2RB_Y387_YF]
- SH2 binding enrichment [1]: 0.651
- SH2 binding enrichment [2]: 0.823
- SH2 binding enrichment [3]: 1.09
- phosphorylation enrichment [4]: 1.23
- phosphorylation enrichment [5]: 1.08
- phosphorylation enrichment [6]: 0.694
- phosphorylation enrichment [7]: 0.562
- phosphorylation enrichment [8]: 0.839
- phosphorylation enrichment [9]: 0.698
- phosphorylation enrichment [10]: 0.686
- phosphorylation enrichment [11]: 1.17
- phosphorylation enrichment [12]: 0.426
- phosphorylation enrichment [13]: 1.18
- phosphorylation enrichment [14]: 0.61
- phosphorylation enrichment [15]: 0.642
- phosphorylation enrichment [16]: 0.772

Sequence: VFGEEYEEQPR [ZMYM2_Y1033]
- SH2 binding enrichment [1]: 0.679
- SH2 binding enrichment [2]: 0.971
- SH2 binding enrichment [3]: 1.01
- phosphorylation enrichment [4]: 1.39
- phosphorylation enrichment [5]: 1.39
- phosphorylation enrichment [6]: 0.585
- phosphorylation enrichment [7]: 0.526
- phosphorylation enrichment [8]: 0.534
- phosphorylation enrichment [9]: 0.731
- phosphorylation enrichment [10]: 0.514
- phosphorylation enrichment [11]: 1.23
- phosphorylation enrichment [12]: 0.386
- phosphorylation enrichment [13]: 0.443
- phosphorylation enrichment [14]: 0.614
- phosphorylation enrichment [15]: 0.767
- phosphorylation enrichment [16]: 0.709
